In patent publication US20020086312A1 (IMMUNEX, published 2002):

Tests used:
[1] = target: T1, murine RANK, endogenous on RAW 264.7 cells (murine) (UniProt O35305); assay: cell-based or functional assay
T1 sequence: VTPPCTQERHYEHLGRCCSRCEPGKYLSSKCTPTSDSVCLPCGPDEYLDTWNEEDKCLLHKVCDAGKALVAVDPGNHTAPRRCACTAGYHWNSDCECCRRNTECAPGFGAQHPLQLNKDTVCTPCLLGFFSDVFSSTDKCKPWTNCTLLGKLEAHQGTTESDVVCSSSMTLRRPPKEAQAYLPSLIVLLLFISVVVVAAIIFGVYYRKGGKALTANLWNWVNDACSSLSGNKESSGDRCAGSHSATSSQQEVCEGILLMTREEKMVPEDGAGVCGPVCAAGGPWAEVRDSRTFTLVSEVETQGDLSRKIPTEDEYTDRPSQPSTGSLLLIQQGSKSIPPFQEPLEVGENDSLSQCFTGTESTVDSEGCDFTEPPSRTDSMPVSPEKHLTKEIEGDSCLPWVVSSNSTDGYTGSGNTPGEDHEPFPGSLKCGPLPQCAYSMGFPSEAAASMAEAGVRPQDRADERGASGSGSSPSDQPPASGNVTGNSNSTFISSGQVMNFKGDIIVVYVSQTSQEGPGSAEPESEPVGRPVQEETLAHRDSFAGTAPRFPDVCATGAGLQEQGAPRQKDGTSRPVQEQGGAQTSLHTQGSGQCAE

[2] = target: T2, full-length human RANK (SEQ ID NO:2) (human, UniProt Q9Y6Q6 29-616); assay: cell-based or functional assay
T2 sequence: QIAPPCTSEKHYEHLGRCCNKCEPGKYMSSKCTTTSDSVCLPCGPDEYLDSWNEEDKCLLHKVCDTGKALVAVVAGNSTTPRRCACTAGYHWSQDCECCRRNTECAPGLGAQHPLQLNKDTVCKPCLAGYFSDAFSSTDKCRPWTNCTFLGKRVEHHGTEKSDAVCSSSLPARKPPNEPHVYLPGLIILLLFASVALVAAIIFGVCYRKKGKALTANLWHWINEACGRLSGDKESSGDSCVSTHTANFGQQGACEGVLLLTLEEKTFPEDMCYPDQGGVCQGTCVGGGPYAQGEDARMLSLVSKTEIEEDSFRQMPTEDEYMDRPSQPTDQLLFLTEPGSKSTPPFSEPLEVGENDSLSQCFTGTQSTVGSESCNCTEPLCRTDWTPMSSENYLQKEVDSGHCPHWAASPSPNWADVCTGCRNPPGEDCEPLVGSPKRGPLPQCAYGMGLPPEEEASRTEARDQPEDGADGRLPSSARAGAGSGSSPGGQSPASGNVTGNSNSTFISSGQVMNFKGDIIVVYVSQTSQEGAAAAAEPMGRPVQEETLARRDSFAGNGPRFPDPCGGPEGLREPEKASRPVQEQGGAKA

“leucine zipper form of murine RANK-L (from UniProt O35235 70-316) (ligand)” was tested, and the induction of the MMP-9/luciferase promoter in transfected RAW 264.7 cells, 1 ug/ml for 18 hours [1] was 10 to 15 fold, the mouse MMP-9 mRNA in RAW 264.7 cells by quantitative RT-PCR, 200 ng/ml [1] was > 350 fold and the mouse TRAP mRNA in RAW 264.7 cells by quantitative RT-PCR, 200 ng/ml [1] was > 250 fold.

In the case of “murine RANK-L (mRANK-L, 200 ng/ml in the differentiation medium) (from UniProt O35235 70-316) (ligand)”, the 32P incorporation into a c-src-specific substrate by extracts of RANK -/- spleen cells expressing wild-type RANK, after differentiation in CSF-1 and mRANK-L [2] is reported as 15 fold and the F-actin ring formation (fluorescent phalloidin staining) in RANK -/- cells expressing wild-type RANK, cultured 5 days with CSF-1 and mRANK-L (% of the cells) [2] is reported as > 50.

B1: human full-length RANK-L (SEQ ID NO:6) (ligand)
chain: MRRASRDYTKYLRGSEEMGGGPGAPHEGPLHAPPPPAPHQPPAASRSMFVALLGLGLGQVVCSVALFFYFRAQMDPNRISEDGTHCIYRILRLHENADFQDTTLESQDTKLIPDSCRRIKQAFQGAVQKELQHIVGSQHIRAEKAMVDGSWLDLAKRSKLEAQPFAHLTINATDIPSGSHKVSLSSWYHDRGWAKISNMTFSNGKLIVNQDGFYYLYANICFRHHETSGDLATEYLQLMVYVTKTSIKIPSSHTLMKGGSTKYWSGNSEFHFYSINVGGFFKLRSGEEISIEVSNPSLLDPDQDATYFGAFKVRDID
B1 was tested, and the “luciferase reporter expression from the human TRAP promoter, co-transfected 293/EBNA cells” value [2] was ~1.5 fold, the “luciferase reporter expression from the mouse TRAP promoter, co-transfected 293/EBNA cells” value [2] was ~4 fold and the “luciferase reporter expression from the murine MMP-9 promoter, co-transfected 293/EBNA cells” value [2] was 2.5 fold.
